This assay concerns the target HLA-DPB1 (from the recombinant plasmid pEGFP-N2-HLA-DPB1, expressed in 293T cells) (human) (UniProt P04440). Briefly: flow cytometry on cells. For orientation: In flow cytometry, cells or beads pass a laser one at a time.

The source of these data is paper PMC8798132.

Sequence of UniProt P04440 (P04440 30-225): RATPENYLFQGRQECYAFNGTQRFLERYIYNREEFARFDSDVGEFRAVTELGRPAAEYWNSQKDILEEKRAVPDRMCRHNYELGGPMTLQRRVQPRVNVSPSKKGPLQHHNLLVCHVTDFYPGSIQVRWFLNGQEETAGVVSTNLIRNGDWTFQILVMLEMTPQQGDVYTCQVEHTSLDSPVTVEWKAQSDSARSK

Take “gp42/gHgL complex protein (from UniProt P03205 33-223; P03231 19-706; P03212 23-137)”: the HLA-DP+ gp42+ cells (%) at 20 ug gp42 protein turned out to be 12.4%; the HLA-DP+ gp42+ cells (%) at 40 ug gp42 protein was 18.4%; the HLA-DP+ gp42+ cells (%) at 80 ug gp42 protein stood at 27.1%; the HLA-DPB1+ gp42+ cells (%), HLA-DPB1 recombinant plasmid group came out at 28.9%. In addition, the gp42+ cells (%) at 20 ug gp42 protein was 14%; the gp42+ cells (%) at 40 ug gp42 protein was determined as 20.1%; the gp42+ cells (%) at 80 ug gp42 protein stood at 29.3%; the gp42+ cells (%), HLA-DPB1 recombinant plasmid group came out at 28.6%.
